Data published in article PMC12631112.

Assays:
[1] = target: serum IgM of WM patient 11 (human (endogenous in serum)); test: SEC + ELISA; serum diluted in PBS fractionated by HP-SEC on Superose 6 increase 10/300 GL in PBS, 0.5 mL/min; IgM, IgM-J-chain and IgM-CD5L measured by ELISA in each 250 µL fraction
[2] = target: IgM of patients with IgM MGUS and WM (n = 29), IgM-CD5L ELISA; test: ELISA; IgM-CD5L ELISA: anti-human IgM (MH-15-1) coated captures IgM from serum diluted in HPE buffer, room temperature; IgM-bound CD5L detected with a-CD5L-HRP (clone 5B5, 0.5 µg/mL); compared to total IgM
[3] = target: serum IgM of healthy donors (mu heavy and light chains) (human (endogenous in serum)); test: as above

B1: CD5-Like (CD5L) (natural protein)
chain: SPSGVRLVGGLHRCEGRVEVEQKGQWGTVCDDGWDIKDVAVLCRELGCGAASGTPSGILYEPPAEKEQKVLIQSVSCTGTEDTLAQCEQEEVYDCSHDEDAGASCENPESSFSPVPEGVRLADGPGHCKGRVEVKHQNQWYTVCQTGWSLRAAKVVCRQLGCGRAVLTQKRCNKHAYGRKPIWLSQMSCSGREATLQDCPSGPWGKNTCNHDEDTWVECEDPFDLRLVGGDNLCSGRLEVLHKGVWGSVCDDNWGEKEDQVVCKQLGCGKSLSPSFRDRKCYGPGVGRIWLDNVRCSGEEQSLEQCQHRFWGFHDCTHQEDVAVICSG
- percent of IgM molecules that contain CD5L [1]: 10%
- ratio between IgM-CD5L complexes and total IgM [2]: 0.1
- ratio between IgM-CD5L complexes and total IgM [3]: 1
